Measured values taken from publication doi:10.1101/2025.09.05.674453.

How the values were obtained:
[1] = target: Lysine-specific gingipain (Kgp), purified (Porphyromonas gingivalis) (UniProt Q51817); assay: progress curve analysis of protease inhibition
[2] = target: Thiol protease (Tpr) (Porphyromonas gingivalis) (UniProt P25806); assay: progress curve analysis of protease inhibition
[3] = target: Lysine-specific gingipain (Kgp), purified (Porphyromonas gingivalis) (UniProt Q51817); assay: titration of residual protease activity
[4] = target: Thiol protease (Tpr) (Porphyromonas gingivalis) (UniProt P25806); assay: titration of residual protease activity
[5] = target: Arginine-specific gingipain RgpB (Porphyromonas gingivalis) (UniProt P95493); assay: progress curve analysis of protease inhibition
Sequence of UniProt P95493 (P95493 25-736): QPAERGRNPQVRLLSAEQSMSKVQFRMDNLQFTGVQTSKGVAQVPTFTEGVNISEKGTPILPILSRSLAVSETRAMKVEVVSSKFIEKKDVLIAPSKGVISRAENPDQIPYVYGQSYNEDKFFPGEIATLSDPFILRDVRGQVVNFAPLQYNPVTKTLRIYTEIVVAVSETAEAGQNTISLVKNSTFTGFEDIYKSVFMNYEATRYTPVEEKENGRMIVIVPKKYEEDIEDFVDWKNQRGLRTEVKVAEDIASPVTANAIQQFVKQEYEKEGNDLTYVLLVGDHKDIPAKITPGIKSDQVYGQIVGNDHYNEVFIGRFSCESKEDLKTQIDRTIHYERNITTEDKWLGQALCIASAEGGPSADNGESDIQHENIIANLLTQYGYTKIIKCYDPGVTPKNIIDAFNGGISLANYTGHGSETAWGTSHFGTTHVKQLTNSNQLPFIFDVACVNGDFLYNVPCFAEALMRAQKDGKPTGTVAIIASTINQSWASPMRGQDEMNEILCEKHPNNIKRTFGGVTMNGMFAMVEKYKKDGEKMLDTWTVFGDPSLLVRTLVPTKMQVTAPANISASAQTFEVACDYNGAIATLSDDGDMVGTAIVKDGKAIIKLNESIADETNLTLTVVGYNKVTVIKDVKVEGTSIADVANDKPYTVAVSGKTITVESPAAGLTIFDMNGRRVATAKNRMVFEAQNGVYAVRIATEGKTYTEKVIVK

[6] = target: Arginine-specific gingipain RgpB (Porphyromonas gingivalis) (UniProt P95493); assay: titration of residual protease activity

Sequence of UniProt Q51817 (Q51817 25-1732): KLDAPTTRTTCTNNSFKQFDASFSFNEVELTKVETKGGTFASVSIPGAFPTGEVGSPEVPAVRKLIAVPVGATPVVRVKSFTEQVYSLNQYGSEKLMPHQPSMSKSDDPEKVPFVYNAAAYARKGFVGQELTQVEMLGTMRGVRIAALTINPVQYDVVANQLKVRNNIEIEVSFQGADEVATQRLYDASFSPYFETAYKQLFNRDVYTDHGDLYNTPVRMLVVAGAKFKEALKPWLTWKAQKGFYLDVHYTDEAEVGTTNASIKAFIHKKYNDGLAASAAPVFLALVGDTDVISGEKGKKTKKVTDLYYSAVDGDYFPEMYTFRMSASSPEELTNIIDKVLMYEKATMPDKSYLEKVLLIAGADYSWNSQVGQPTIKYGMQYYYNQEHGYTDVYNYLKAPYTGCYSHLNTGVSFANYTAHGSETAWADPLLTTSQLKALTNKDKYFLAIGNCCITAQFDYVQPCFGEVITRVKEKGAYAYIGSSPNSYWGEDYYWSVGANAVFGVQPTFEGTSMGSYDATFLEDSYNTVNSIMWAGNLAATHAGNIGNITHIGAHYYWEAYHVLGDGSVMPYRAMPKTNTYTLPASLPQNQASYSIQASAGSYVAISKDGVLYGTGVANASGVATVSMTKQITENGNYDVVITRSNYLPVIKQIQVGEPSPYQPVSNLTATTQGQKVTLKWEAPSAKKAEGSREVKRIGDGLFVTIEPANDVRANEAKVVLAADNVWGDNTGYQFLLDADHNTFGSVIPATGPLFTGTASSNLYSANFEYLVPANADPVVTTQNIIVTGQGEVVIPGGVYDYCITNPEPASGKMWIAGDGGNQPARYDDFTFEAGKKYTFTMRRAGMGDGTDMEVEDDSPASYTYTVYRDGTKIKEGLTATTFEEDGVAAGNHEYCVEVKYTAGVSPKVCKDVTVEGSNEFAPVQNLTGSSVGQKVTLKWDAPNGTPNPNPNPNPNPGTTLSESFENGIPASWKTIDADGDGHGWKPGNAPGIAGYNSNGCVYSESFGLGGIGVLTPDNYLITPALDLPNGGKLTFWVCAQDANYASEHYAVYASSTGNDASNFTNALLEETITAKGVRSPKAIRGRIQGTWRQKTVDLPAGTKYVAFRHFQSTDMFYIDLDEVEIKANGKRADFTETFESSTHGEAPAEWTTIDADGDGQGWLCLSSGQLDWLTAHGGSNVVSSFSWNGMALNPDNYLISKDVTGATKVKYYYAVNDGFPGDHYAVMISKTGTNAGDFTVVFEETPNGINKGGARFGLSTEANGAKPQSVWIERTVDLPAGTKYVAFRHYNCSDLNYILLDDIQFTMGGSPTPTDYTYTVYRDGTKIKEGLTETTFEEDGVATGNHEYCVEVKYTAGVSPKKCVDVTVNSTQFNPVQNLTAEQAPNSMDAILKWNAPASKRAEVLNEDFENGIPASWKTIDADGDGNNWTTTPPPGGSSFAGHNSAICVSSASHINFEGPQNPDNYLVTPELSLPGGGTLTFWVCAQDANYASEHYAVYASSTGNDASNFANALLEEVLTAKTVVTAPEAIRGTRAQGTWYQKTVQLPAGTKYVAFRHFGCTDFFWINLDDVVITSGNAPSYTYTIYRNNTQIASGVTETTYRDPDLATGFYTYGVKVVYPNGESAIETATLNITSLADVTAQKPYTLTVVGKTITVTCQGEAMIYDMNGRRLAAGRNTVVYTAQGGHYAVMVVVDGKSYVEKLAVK
Sequence of UniProt P25806 (P25806 whole entry): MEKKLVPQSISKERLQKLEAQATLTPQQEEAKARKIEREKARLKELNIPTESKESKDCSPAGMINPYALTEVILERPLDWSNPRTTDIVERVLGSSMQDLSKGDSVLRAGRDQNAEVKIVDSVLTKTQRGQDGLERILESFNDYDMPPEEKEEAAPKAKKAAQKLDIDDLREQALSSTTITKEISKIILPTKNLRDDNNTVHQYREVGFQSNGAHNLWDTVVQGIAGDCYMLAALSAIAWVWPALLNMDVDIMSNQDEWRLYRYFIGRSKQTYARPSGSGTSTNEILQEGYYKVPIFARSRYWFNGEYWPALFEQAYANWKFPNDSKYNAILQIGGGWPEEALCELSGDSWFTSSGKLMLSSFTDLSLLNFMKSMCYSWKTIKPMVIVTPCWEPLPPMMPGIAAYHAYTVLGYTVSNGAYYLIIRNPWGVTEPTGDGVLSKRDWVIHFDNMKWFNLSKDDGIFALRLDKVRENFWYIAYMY

Substance | kon [1] [M⁻¹ s⁻¹] | kon [2] [M⁻¹ s⁻¹] | stoichiometry of inhibition (SI) [3] | stoichiometry of inhibition (SI) [4] | kon [5] [M⁻¹ s⁻¹] | stoichiometry of inhibition (SI) [6]
Recombinant wild-type miropin (VKT-mir) (natural protein) | 220000 | 2500 | 1.9 | 9.3 | – | –
RVK-miropin (natural protein) | 330000 | – | 1.7 | – | 740000 | 1.7
